Results on two molecules are retold here after patent US20180282386A1 (REGENTS OF THE UNIVERSITY OF MINNESOTA, published 2018).

One experiment has as its target T1, CD133 on Caco-2 cells (human, UniProt O43490 20-865).
T1 construct: whole, on cells; also called prominin-1
T1 sequence (looked up): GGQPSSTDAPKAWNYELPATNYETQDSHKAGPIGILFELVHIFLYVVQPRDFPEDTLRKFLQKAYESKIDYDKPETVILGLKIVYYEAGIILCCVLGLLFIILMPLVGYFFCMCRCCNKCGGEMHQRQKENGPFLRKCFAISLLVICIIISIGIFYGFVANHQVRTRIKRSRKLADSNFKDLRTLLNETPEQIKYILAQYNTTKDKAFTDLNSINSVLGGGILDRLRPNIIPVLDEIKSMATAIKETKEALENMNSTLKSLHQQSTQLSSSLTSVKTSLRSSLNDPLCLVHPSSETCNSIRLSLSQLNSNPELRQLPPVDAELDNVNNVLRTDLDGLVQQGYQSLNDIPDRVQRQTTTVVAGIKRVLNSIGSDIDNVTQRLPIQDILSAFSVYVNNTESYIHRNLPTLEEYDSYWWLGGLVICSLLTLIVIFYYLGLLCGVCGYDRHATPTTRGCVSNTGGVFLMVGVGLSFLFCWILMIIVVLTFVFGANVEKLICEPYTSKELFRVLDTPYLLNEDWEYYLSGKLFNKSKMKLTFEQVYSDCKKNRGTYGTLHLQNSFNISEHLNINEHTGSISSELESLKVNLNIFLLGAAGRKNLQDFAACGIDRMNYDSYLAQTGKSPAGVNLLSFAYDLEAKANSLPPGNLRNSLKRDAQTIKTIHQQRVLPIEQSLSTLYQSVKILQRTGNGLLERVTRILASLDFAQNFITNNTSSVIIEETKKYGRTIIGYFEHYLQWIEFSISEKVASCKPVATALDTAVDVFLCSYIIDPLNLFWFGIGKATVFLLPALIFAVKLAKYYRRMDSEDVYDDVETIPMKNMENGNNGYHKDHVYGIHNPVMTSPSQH
Briefly: flow cytometry on Caco-2 cells, competition with FITC-labeled 1615133 TriKE. For orientation: A flow cytometer gives signals particle by particle.

Experiment [1] deals with EpCAM on HT-29 cells (human) (UniProt P16422). Briefly: flow cytometry, direct binding to CD33- EpCAM+ HT-29 cells (specificity control), 4 µg drug.
Sequence of EpCAM on HT-29 cells (human) (P16422 24-314): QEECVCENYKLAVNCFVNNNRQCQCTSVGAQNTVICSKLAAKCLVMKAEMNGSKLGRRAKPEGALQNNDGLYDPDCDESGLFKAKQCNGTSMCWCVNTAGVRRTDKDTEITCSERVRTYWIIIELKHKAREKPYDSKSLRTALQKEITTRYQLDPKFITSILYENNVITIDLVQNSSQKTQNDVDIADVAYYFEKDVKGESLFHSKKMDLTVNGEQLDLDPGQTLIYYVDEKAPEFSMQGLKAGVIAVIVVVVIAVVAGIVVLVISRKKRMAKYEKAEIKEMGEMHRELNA

B1: anti-CD133 scFv (scFv)
scFv: MDIVLSQSPAIMSASPGEKVTISCSASSSVSYMYWYQQKPGSSPKPWIYRTSNLASGVPARFSGSGSGTSYSLTISSMEAEDAATYYCQQYHSYPPTFGAGTKLELKSSGGGGSGGGGGGSSRSSLEVKLVESGPELKKPGETVKISCKASGYTFTDYSMHWVNQAPGKGLKWMGWINTETGEPSYADDFKGRFAFSLETSASTAYLQINNLKNEDTATYFCATDYGDYFDYWGQGTTLTVSS
notes: also called monomeric CD133 scFv; anti-CD133 scFv from clone 7
With B1, the binding result with CD133 on Caco-2 cells is recorded as “binds”.

B2: 1633 bispecific killer engager (BiKE) (bispecific antibody)
chain: MEVQLVESGGGVVRPGGSLRLSCAASGFTFDDYGMSWVRQAPGKGLEWVSGINWNGGSTGYADSVKGRFTISRDNAKNSLYLQMNSLRAEDTAVYYCARGRSLLFDYWGQGTLVTVSRGGGGSGGGGSGGGGSSELTQDPAVSVALGQTVRITCQGDSLRSYYASWYQQKPGQAPVLVIYGKNNRPSGIPDRFSGSSSGNTASLTITGAQAEDEADYYCNSRDSSGNHVVFGGGTKLTVLPSGQAGAAASESLFVSNHAYQVQLVQSGAEVKKPGSSVKVSCKASGYTFTDYNMHWVRQAPGQGLEWIGYIYPYNGGTGYNQKFKSKATITADESTNTAYMELSSLRSEDTAVYYCARGRPAMDYWGQGTLVTVSSGGGGSGGGGSGGGGSDIQMTQSPSSLSASVGDRVTITCRASESVDNYGISFMNWFQQKPGKAPKLLIYAASNQGSGVPSRFSGSGSGTDFTLTISSLQPDDFATYYCQQSKEVPWTFGQGTKVEIK
modifications: FITC label (site not stated)
Turning to B2, in experiment [1], the % Positive Cells was 1%.
